Data from patent US20110207796.

Target: human alpha-synuclein (wild-type, recombinant)

B1: adrenergic, beta, receptor kinase 1 (GRK2; BARK1) (protein)
chain: MADLEAVLADVSYLMAMEKSKATPAARASKKILLPEPSIRSVMQKYLEDRGEVTFEKIFSQKLGYLLFRDFCLNHLEEARPLVEFYEEIKKYEKLETEEERVARSREIFDSYIMKELLACSHPFSKSATEHVQGHLGKKQVPPDLFQPYIEEICQNLRGDVFQKFIESDKFTRFCQWKNVELNIHLTMNDFSVHRIIGRGGFGEVYGCRKADTGKMYAMKCLDKKRIKMKQGETLALNERIMLSLVSTGDCPFIVCMSYAFHTPDKLSFILDLMNGGDLHYHLSQHGVFSEADMRFYAAEIILGLEHMHNRFVVYRDLKPANILLDEHGHVRISDLGLACDFSKKKPHASVGTHGYMAPEVLQKGVAYDSSADWFSLGCMLFKLLRGHSPFRQHKTKDKHEIDRMTLTMAVELPDSFSPELRSLLEGLLQRDVNRRLGCLGRGAQEVKESPFFRSLDWQMVFLQKYPPPLIPPRGEVNAADAFDIGSFDEEDTKGIKLLDSDQELYRNFPLTISERWQQEVAETVFDTINAETDRLEARKKAKNKQLGHEEDYALGKDCIMHGYMSKMGNPFLTQWQRRYFYLFPNRLEWRGEGEAPQSLLTMEEIQSVEETQIKERKCLLLKIRGGKQFILQCDSDPELVQWKKELRDAYREAQQLVQRVPKMKNKPRSPVVELSKVPLVQRGSANGL
**Q.** Which results are given for B1?
**A.** S129 phosphorylation, immunoblot (mAb 11A5), rank of signal: CKI>GRK6>PLK2>GRK4>GRK5>GRK2; in vitro kinase reaction, phosphorylation of alpha-synuclein at serine 129: capable of phosphorylating alpha-synuclein specifically at serine 129 and did not phosphorylate serine 87 in vitro

B2: G protein-coupled receptor kinase 6 (protein)
chain: MELENIVANTVLLKAREGGGGNRKGKSKKWRQMLQFPHISQCEELRLSLERDYHSLCERQPIGRLLFREFCATRPELSRCVAFLDGVAEYEVTPDDKRKACGRQLTQNFLSHTGPDLIPEVPRQLVTNCTQRLEQGPCKDLFQELTRLTHEYLSVAPFADYLDSIYFNRFLQWKWLERQPVTKNTFRQYRVLGKGGFGEVCACQVRATGKMYACKKLEKKRIKKRKGEAMALNEKQILEKVNSRFVVSLAYAYETKDALCLVLTLMNGGDLKFHIYHMGQAGFPEARAVFYAAEICCGLEDLHRERIVYRDLKPENILLDDHGHIRISDLGLAVHVPEGQTIKGRVGTVGYMAPEVVKNERYTFSPDWWALGCLLYEMIAGQSPFQQRKKKIKREEVERLVKEVPEEYSERFSPQARSLCSQLLCKDPAERLGCRGGSAREVKEHPLFKKLNFKRLGAGMLEPPFKPDPQAIYCKDVLDIEQFSTVKGVELEPTDQDFYQKFATGSVPIPWQNEMVETECFQELNVFGLDGSVPPDLDWKGQPPAPPKKGLLQRLFSRQDCCGNCSDSEEELPTRL
**Q.** With B2 as the protein, how does the “S129 phosphorylation in vitro, kinases normalized by activity units” value read?
**A.** The value was “The most prominent result came from GRK6”.

**Q.** What about the “S129 phosphorylation, immunoblot (mAb 11A5), kinase:rAS 1:200 molar” value of the same protein?
**A.** The value was “Prominent signals came from GRK6, CKI, CKII and PLK2”.

**Q.** And the “S129 phosphorylation, immunoblot (mAb 11A5), rank of signal” value?
**A.** The value was “CKI>GRK6>PLK2>GRK4>GRK5>GRK2”.

**Q.** And the “in vitro kinase reaction, phosphorylation of alpha-synuclein at serine 129” value?
**A.** Its value is “capable of phosphorylating alpha-synuclein specifically at serine 129 and did not phosphorylate serine 87 in vitro”.

**Q.** What about the “phospho ser-129 in vitro, kinases normalized for molarity” value of the same protein?
**A.** Its value is “roughly equivalent levels of phospho ser-129 between CKI, GRK6 and PLK2”.

B3: PLK4 (protein)
chain: MATCIGEKIEDFKVGNLLGKGSFAGVYRAESIHTGLEVAIKMIDKKAMYKAGMVQRVQNEVKIHCQLKHPSILELYNYFEDSNYVYLVLEMCHNGEMNRYLKNRVKPFSENEARHFMHQIITGMLYLHSHGILHRDLTLSNLLLTRNMNIKIADFGLATQLKMPHEKHYTLCGTPNYISPEIATRSAHGLESDVWSLGCMFYTLLIGRPPFDTDTVKNTLNKVVLADYEMPSFLSIEAKDLIHQLLRRNPADRLSLSSVLDHPFMSRNSSTKSKDLGTVEDSIDSGHATISTAITASSSTSISGSLFDKRRLLIGQPLPNKMTVFPKNKSSTDFSSSGDGNSFYTQWGNQETSNSGRGRVIQDAEERPHSRYLRRAYSSDRSGTSNSQSQAKTYTMERCHSAEMLSVSKRSGGGENEERYSPTDNNANIFNFFKEKTSSSSGSFERPDNNQALSNHLCPGKTPFPFADPTPQTETVQQWFGNLQINAHLRKTTEYDSISPNRDFQGHPDLQKDTSKNAWTDTKVKKNSDASDNAHSVKQQNTMKYMTALHSKPEIIQQECVFGSDPLSEQSKTRGMEPPWGYQNRTLRSITSPLVAHRLKPIRQKTKKAVVSILDSEEVCVELVKEYASQEYVKEVLQISSDGNTITIYYPNGGRGFPLADRPPSPTDNISRYSFDNLPEKYWRKYQYASRFVQLVRSKSPKITYFTRYAKCILMENSPGADFEVWFYDGVKIHKTEDFIQVIEKTGKSYTLKSESEVNSLKEEIKMYMDHANEGHRICLALESIISEEERKTRSAPFFPIIIGRKPGSTSSPKALSPPPSVDSNYPTRERASFNRMVMHSAASPTQAPILNPSMVTNEGLGLTTTASGTDISSNSLKDCLPKSAQLLKSVFVKNVGWATQLTSGAVWVQFNDGSQLVVQAGVSSISYTSPNGQTTRYGENEKLPDYIKQKLQCLSSILLMFSNPTPNFH
**Q.** Which results are given for B3?
**A.** Fold Change in Percent Synuclein Phosphorylation (ELISA, HEK-293 overexpression): 1 fold; Proportion of total synuclein that is phoshorylated at ser-129 (ELISA, HEK-293 overexpression): 1.9%; in vitro biochemical assay, phosphorylation of synuclein: PLK4 exhibiting no ability to phosphorylate synuclein

B4: GRK4 (protein)
chain: MELENIVANSLLLKARQGGYGKKSGRSKKWKEILTLPPVSQCSELRHSIEKDYSSLCDKQPIGRRLFRQFCDTKPTLKRHIEFLDAVAEYEVADDEDRSDCGLSILDRFFNDKLAAPLPEIPPDVVTECRLGLKEENPSKKAFEECTRVAHNYLRGEPFEEYQESSYFSQFLQWKWLERQPVTKNTFRHYRVLGKGGFGEVCACQVRATGKMYACKKLQKKRIKKRKGEAMALNEKRILEKVQSRFVVSLAYAYETKDALCLVLTIMNGGDLKFHIYNLGNPGFDEQRAVFYAAELCCGLEDLQRERIVYRDLKPENILLDDRGHIRISDLGLATEIPEGQRVRGRVGTVGYMAPEVVNNEKYTFSPDWWGLGCLIYEMIQGHSPFKKYKEKVKWEEVDQRIKNDTEEYSEKFSEDAKSICRMLLTKNPSKRLGCRGEGAAGVKQHPVFKDINFRRLEANMLEPPFCPDPHAVYCKDVLDIEQFSVVKGIYLDTADEDFYARFATGCVSIPWQNEMIESGCFKDINKSESEEALPLDLDKNIHTPVSRPNRGFFYRLFRRGGCLTMVPSEKEVEPKQC
**Q.** For B4, which “S129 phosphorylation, immunoblot (mAb 11A5), rank of signal” value is on record?
**A.** The value was “CKI>GRK6>PLK2>GRK4>GRK5>GRK2”.

B5: met proto-oncogene (hepatocyte growth factor receptor) (protein)
chain: KKRKQIKDLGSELVRYDARVHTPHLDRLVSARSVSPTTEMVSNESVDYRATFPEDQFPNSSQNGSCRQVQYPLTDMSPILTSGDSDISSPLLQNTVHIDLSALNPELVQAVQHVVIGPSSLIVHFNEVIGRGHFGCVYHGTLLDNDGKKIHCAVKSLNRITDIGEVSQFLTEGIIMKDFSHPNVLSLLGICLRSEGSPLVVLPYMKHGDLRNFIRNETHNPTVKDLIGFGLQVAKGMKYLASKKFVHRDLAARNCMLDEKFTVKVADFGLARDMYDKEYYSVHNKTGAKLPVKWMALESLQTQKFTTKSDVWSFGVLLWELMTRGAPPYPDVNTFDITVYLLQGRRLLQPEYCPDPLYEVMLKCWHPKAEMRPSFSELVSRISAIFSTFIGEHYVHVNATYVNVKCVAPYPSLLSSEDNADDEVDTRPASFWETS
**Q.** Which “in vitro kinase reaction, phosphorylation of alpha-synuclein” value does the source give for B5 here?
**A.** Its value is “shown to be incapable of directly phosphorylating alpha-synuclein”.

B6: GRK7 (protein)
chain: MVDMGALDNLIANTAYLQARKPSDCDSKELQRRRRSLALPGLQGCAELRQKLSLNFHSLCEQQPIGRRLFRDFLATVPTFRKAATFLEDVQNWELAEEGPTKDSALQGLVATCASAPAPGNPQPFLSQAVATKCQAATTEEERVAAVTLAKAEAMAFLQEQPFKDFVTSAFYDKFLQWKLFEMQPVSDKYFTEFRVLGKGGFGEVCAVQVKNTGKMYACKKLDKKRLKKKGGEKMALLEKEILEKVSSPFIVSLAYAFESKTHLCLVMSLMNGGDLKFHIYNVGTRGLDMSRVIFYSAQIACGMLHLHELGIVYRDMKPENVLLDDLGNCRLSDLGLAVEMKGGKPITQRAGTNGYMAPEILMEKVSYSYPVDWFAMGCSIYEMVAGRTPFKDYKEKVSKEDLKQRTLQDEVKFQHDNFTEEAKDICRLFLAKKPEQRLGSREKSDDPRKHHFFKTINFPRLEAGLIEPPFVPDPSVVYAKDIAEIDDFSEVRGVEFDDKDKQFFKNFATGAVPIAWQEEIIETGLFEELNDPNRPTGCEEGNSSKSGVCLLL
**Q.** Which results are given for B6?
**A.** S129 phosphorylation, immunoblot (mAb 11A5): Prominent signals came from all GRKs except for GRK7; in vitro kinase reaction, phosphorylation of alpha-synuclein at serine 129: capable of phosphorylating alpha-synuclein specifically at serine 129 and did not phosphorylate serine 87 in vitro; phosphorylation of alpha-synuclein in vitro: GRK 7 was not able to phosphorylate at appreciable levels

B7: CDC7 cell division cycle 7-like 1 (protein)
chain: MEASLGIQMDEPMAFSPQRDRFQAEGSLKKNEQNFKLAGVKKDIEKLYEAVPQLSNVFKIEDKIGEGTFSSVYLATAQLQVGPEEKIALKHLIPTSHPIRIAAELQCLTVAGGQDNVMGVKYCFRKNDHVVIAMPYLEHESFLDILNSLSFQEVREYMLNLFKALKRIHQFGIVHRDVKPSNFLYNRRLKKYALVDFGLAQGTHDTKIELLKFVQSEAQQERCSQNKSHIITGNKIPLSGPVPKELDQQSTTKASVKRPYTNAQIQIKQGKDGKEGSVGLSVQRSVFGERNFNIHSSISHESPAVKLMKQSKTVDVLSRKLATKKKAISTKVMNSAVMRKTASSCPASLTCDCYATDKVCSICLSRRQQVAPRAGTPGFRAPEVLTKCPNQTTAIDMWSAGVIFLSLLSGRYPFYKASDDLTALAQIMTIRGSRETIQAAKTFGKSILCSKEVPAQDLRKLCERLRGMDSSTPKLTSDIQGHASHQPAISEKTDHKASCLVQTPPGQYSGNSFKKGDSNSCEHCFDEYNTNLEGWNEVPDEAYDLLDKLLDLNPASRITAEEALLHPFFKDMSL
**Q.** With B7 as the protein, how does the “in vitro kinase reaction, phosphorylation of alpha-synuclein” value read?
**A.** The value was “shown to be incapable of directly phosphorylating alpha-synuclein”.

B8: PLK3 (protein)
chain: MEPAAGFLSPRPFQRAAAAPAPPAGPGPPPSALRGPELEMLAGLPTSDPGRLITDPRSGRTYLKGRLLGKGGFARCYEATDTETGSAYAVKVIPQSRVAKPHQREKILNEIELHRDLQHRHIVRFSHHFEDADNIYIFLELCSRKSLAHIWKARHTLLEPEVRYYLRQILSGLKYLHQRGILHRDLKLGNFFITENMELKVGDFGLAARLEPPEQRKKTICGTPNYVAPEVLLRQGHGPEADVWSLGCVMYTLLCGSPPFETADLKETYRCIKQVHYTLPASLSLPARQLLAAILRASPRDRPSIDQILRHDFFTKGYTPDRLPISSCVTVPDLTPPNPARSLFAKVTKSLFGRKKKSKNHAQERDEVSGLVSGLMRTSVGHQDARPEAPAASGPAPVSLVETAPEDSSPRGTLASSGDGFEEGLTVATVVESALCALRNCIAFMPPAEQNPAPLAQPEPLVWVSKWVDYSNKFGFGYQLSSRRVAVLFNDGTHMALSANRKTVHYNPTSTKHFSFSVGAVPRALQPQLGILRYFASYMEQHLMKGGDLPSVEEVEVPAPPLLLQWVKTDQALLMLFSDGTVQVNFYGDHTKLILSGWEPLLVTFVARNRSACTYLASHLRQLGCSPDLRQRLRYALRLLRDRSPA
**Q.** Which results are given for B8?
**A.** Fold Change in Percent Synuclein Phosphorylation (ELISA, HEK-293 overexpression): 39.6 fold; Proportion of total synuclein that is phoshorylated at ser-129 (ELISA, HEK-293 overexpression): 79.2%; in vitro biochemical assay, phosphorylation of synuclein: PLK2 and PLK3 having extremely robust phosphorylation of synuclein
